Results reported in the supplement of paper PMC7877785.
± gives the uncertainty stated by the source.

Assay: self-splicing fitness, log relative to wild type (ln ratio); higher = more splicing; Tetrahymena group I intron in knt gene, E. coli kanamycin selection, DiMSum; sequences stand for … in CUCUCU…GGAGGGAAAAGUUAUCAGGCAUGCACCUGGUAGCUAGUCUUUAAACCAAUAGAUUGCAUCGGUUUAAAAGGCAAGACCGUCAAAUUGCGGGAAAGGGGUCAACAGCCGUUCAGUACCAAGUCUCAGGGGAAACUUUGAGAUGGCCUUGCAAAGGGUAUGGUAAUAAGCUGACGGACAUGGUCCUAACCACGCAGCCAAGUCCUAAGUCAACAGAUCUUCUGUUGAUAUGGAUGCAGUUCACAGACUAAAUGUCGGUCGGGGAAGAUGUAUUCUUCUCAUAAGAUAUAGUCGGACCUCUCCUUAAUGGGAGCUAGCGGAUGAAGUGAUGCAACACUGGAGCCGCUGGGAACUAAUUUGUAUGCGAAAGUAUAUUGAUUAGUUUUGGAGUACUCGUGGUCG
In short: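 DiMSum derived fitness as the error-weighted combination of fold changes across replicates, kanamycin versus no kanamycin, normalised to wild type. E. coli BL21(DE3) held the library, which randomised all eight P1ex-region intron nucleotides within the knt kanamycin-resistance gene on pET-22b(+). Six replicate transformations grew overnight at 37°C or 30°C on LB agar with or without 25 μg/mL kanamycin, also containing 100 μg/mL carbenicillin, 50 μM IPTG and 0.2% rhamnose, and pooled colonies were amplicon-sequenced on an Illumina HiSeq 2500.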

Row | Sequence | self-splicing fitness (ln) (30 °C) | self-splicing fitness (ln) (37 °C)
1 | GGGGAGCAAUAUUACGAUAC | -2.37 ± 0.3 | -0.552 ± 0.27
2 | GGGGAGCAAUAUUACGAUUC | -1.52 ± 0.16 | -0.791 ± 0.2
3 | GGGGAGCAAUAUUACGCCCA | -1.14 ± 0.19 | -0.0692 ± 0.27
4 | GGGGAGCAAUAUUACGCUAA |  | 0.376 ± 0.38
5 | GGGGAGCAAUAUUACGCUGA | -3.2 ± 0.16 | -2.33 ± 0.2
6 | GGGGAGCAAUAUUACGGCAA | -2.04 ± 0.33 | -0.565 ± 0.25
7 | GGGGAGCAAUAUUACGGCGA | -2.4 ± 0.26 | -1.81 ± 0.24
8 | GGGGAGCAAUAUUACGGGUU | -2.84 ± 0.22 | -2.2 ± 0.39
9 | GGGGAGCAAUAUUACGGUCC | -1.26 ± 0.46 | 
10 | GGGGAGCAAUAUUACGUCAA | -2.48 ± 0.3 | -3.16 ± 0.35
11 | GGGGAGCAAUAUUACGUCCA | -0.767 ± 0.12 | -0.145 ± 0.22
12 | GGGGAGCAAUAUUACGUUAC | -3.54 ± 0.38 | -1.07 ± 0.26
13 | GGGGAGCAAUAUUACGUUGU |  | -1.82 ± 0.28
14 | GGGGAGCAAUAUUACGUUUA | -2.13 ± 0.28 | -2.77 ± 0.48
15 | GGGUAGCAAUAUUACGAACU | -0.832 ± 0.27 | -0.534 ± 0.19
16 | GGGUAGCAAUAUUACGAUCU | -1.64 ± 0.092 | -0.576 ± 0.11
17 | GGGUAGCAAUAUUACGCCGA | -0.784 ± 0.16 | -0.0895 ± 0.11
18 | GGGUAGCAAUAUUACGGACU | -0.272 ± 0.19 | 0.331 ± 0.24
19 | GGGUAGCAAUAUUACGGCAA | -0.369 ± 0.24 | -0.33 ± 0.28
20 | GGGUAGCAAUAUUACGGGCC | -2.03 ± 0.38 | 
21 | GGGUAGCAAUAUUACGGGCG | -0.346 ± 0.098 | -0.12 ± 0.13
22 | GGGUAGCAAUAUUACGGUGU | -1.09 ± 0.095 | -0.365 ± 0.12
23 | GGGUAGCAAUAUUACGUACA | -1.34 ± 0.2 | -0.763 ± 0.21
24 | GGGUAGCAAUAUUACGUACG | -0.676 ± 0.23 | -0.536 ± 0.29
25 | GGGUAGCAAUAUUACGUAGU | -2.23 ± 0.085 | -0.762 ± 0.093

Row | Sequence | self-splicing fitness (ln) (30 °C) | self-splicing fitness (ln) (37 °C)
26 | GGGUAGCAAUAUUACGUCUU | -0.106 ± 0.1 | 0.268 ± 0.14
27 | GGGUAGCAAUAUUACGUUUC | -2.16 ± 0.12 | -0.68 ± 0.15
28 | GGUAAGCAAUAUUACGAACC |  | -1.64 ± 0.42
29 | GGUAAGCAAUAUUACGAAUU | -1.04 ± 0.11 | -0.205 ± 0.14
30 | GGUAAGCAAUAUUACGACAG | -2.56 ± 0.29 | -1.99 ± 0.44
31 | GGUAAGCAAUAUUACGACUA | 0.407 ± 0.12 | -0.574 ± 0.12
32 | GGUAAGCAAUAUUACGAGCU | -3.03 ± 0.35 | -1.36 ± 0.25
33 | GGUAAGCAAUAUUACGAGUA | -2.4 ± 0.21 | -1.03 ± 0.14
34 | GGUAAGCAAUAUUACGAUGG | -3.83 ± 0.39 | -2.64 ± 0.33
35 | GGUAAGCAAUAUUACGCAAA | -2.37 ± 0.22 | -1.15 ± 0.17
36 | GGUAAGCAAUAUUACGCAGU | -1.51 ± 0.17 | -1.55 ± 0.24
37 | GGUAAGCAAUAUUACGCAUA | -1.19 ± 0.15 | 0.0315 ± 0.17
38 | GGUAAGCAAUAUUACGCGCC | -2.99 ± 0.33 | -1.48 ± 0.29
39 | GGUAAGCAAUAUUACGCUCA | -0.326 ± 0.26 | -0.105 ± 0.48
40 | GGUAAGCAAUAUUACGCUGC | -2.94 ± 0.2 | 
41 | GGUAAGCAAUAUUACGCUUC | -4.14 ± 0.42 | -1.58 ± 0.35
42 | GGUAAGCAAUAUUACGGAAG | -3.03 ± 0.18 | -2.56 ± 0.26
43 | GGUAAGCAAUAUUACGGAGC | -2.99 ± 0.2 | -1.98 ± 0.22
44 | GGUAAGCAAUAUUACGGCAA | -0.143 ± 0.12 | -0.18 ± 0.15
45 | GGUAAGCAAUAUUACGGCCG | -0.712 ± 0.12 | -0.544 ± 0.17
46 | GGUAAGCAAUAUUACGGCUU | -0.104 ± 0.075 | 0.352 ± 0.11
47 | GGUAAGCAAUAUUACGGUCU | 0.187 ± 0.083 | -0.0802 ± 0.087
48 | GGUAAGCAAUAUUACGUAAC | -1.86 ± 0.13 | -0.278 ± 0.15
49 | GGUAAGCAAUAUUACGUAAU | -1.21 ± 0.096 | -0.781 ± 0.12
50 | GGUAAGCAAUAUUACGUACA | -0.648 ± 0.1 | 0.294 ± 0.14

Row | Sequence | self-splicing fitness (ln) (30 °C) | self-splicing fitness (ln) (37 °C)
51 | GGUAAGCAAUAUUACGUAGG | -2.78 ± 0.19 | -3.5 ± 0.28
52 | GGUAAGCAAUAUUACGUCUC | -1.04 ± 0.13 | -1.27 ± 0.16
53 | GGUAAGCAAUAUUACGUCUG | -1.85 ± 0.14 | -1.51 ± 0.1
54 | GGUAAGCAAUAUUACGUUUC | -3.52 ± 0.27 | 0.249 ± 0.15
55 | GGUCAGCAAUAUUACGAACA | -0.818 ± 0.14 | -0.749 ± 0.17
56 | GGUCAGCAAUAUUACGACAA | -0.264 ± 0.062 | 0.179 ± 0.093
57 | GGUCAGCAAUAUUACGACCG | -1.89 ± 0.17 | -1.26 ± 0.19
58 | GGUCAGCAAUAUUACGAGAC | -2.27 ± 0.23 | -1.29 ± 0.31
59 | GGUCAGCAAUAUUACGAGGA |  | -1.73 ± 0.36
60 | GGUCAGCAAUAUUACGAUUC | -0.716 ± 0.079 | -0.325 ± 0.11
61 | GGUCAGCAAUAUUACGCAUC | -0.704 ± 0.091 | -0.125 ± 0.1
62 | GGUCAGCAAUAUUACGCCAU | -3.36 ± 0.3 | -0.853 ± 0.17
63 | GGUCAGCAAUAUUACGCGCA | -0.219 ± 0.13 | -0.27 ± 0.12
64 | GGUCAGCAAUAUUACGCGUU | -0.112 ± 0.084 | 0.0966 ± 0.13
65 | GGUCAGCAAUAUUACGCUCG | -0.0238 ± 0.095 | 0.341 ± 0.12
66 | GGUCAGCAAUAUUACGCUCU | -1.58 ± 0.2 | 0.397 ± 0.34
67 | GGUCAGCAAUAUUACGCUUG | -0.955 ± 0.07 | -0.556 ± 0.096
68 | GGUCAGCAAUAUUACGGAUC | -2.95 ± 0.22 | -0.0513 ± 0.21
69 | GGUCAGCAAUAUUACGGCAC | -0.775 ± 0.13 | 0.566 ± 0.16
70 | GGUCAGCAAUAUUACGGCCU | -2.84 ± 0.29 | -2.34 ± 0.45
71 | GGUCAGCAAUAUUACGGGAC | -1.72 ± 0.15 | -2.96 ± 0.4
72 | GGUCAGCAAUAUUACGGGUA | -1.57 ± 0.12 | -0.686 ± 0.1
73 | GGUCAGCAAUAUUACGGUAC | 0.214 ± 0.15 | 0.298 ± 0.17
74 | GGUCAGCAAUAUUACGGUCC | -3.1 ± 0.39 | -1.81 ± 0.37
75 | GGUCAGCAAUAUUACGUCGG | -3.9 ± 0.36 | -0.891 ± 0.19

Row | Sequence | self-splicing fitness (ln) (30 °C) | self-splicing fitness (ln) (37 °C)
76 | GGUCAGCAAUAUUACGUUUA | -1.23 ± 0.1 | -0.167 ± 0.1
77 | GGUGAGCAAUAUUACGAACA | -0.64 ± 0.34 | 0.394 ± 0.47
78 | GGUGAGCAAUAUUACGAAGU | -2.25 ± 0.23 | -1.67 ± 0.35
79 | GGUGAGCAAUAUUACGACAU | -1.27 ± 0.016 | -0.567 ± 0.035
80 | GGUGAGCAAUAUUACGACGA | -1.32 ± 0.22 | -0.954 ± 0.34
81 | GGUGAGCAAUAUUACGACUA | -0.202 ± 0.17 | -0.327 ± 0.17
82 | GGUGAGCAAUAUUACGAGCA | -0.652 ± 0.23 | -1.1 ± 0.29
83 | GGUGAGCAAUAUUACGAUAA | -1.22 ± 0.47 | 
84 | GGUGAGCAAUAUUACGAUUC | -0.904 ± 0.089 | 0.137 ± 0.11
85 | GGUGAGCAAUAUUACGCACU | -3.35 ± 0.44 | -2.9 ± 0.43
86 | GGUGAGCAAUAUUACGGCGC | -0.434 ± 0.13 | -0.198 ± 0.19
87 | GGUGAGCAAUAUUACGGGUA | -2.58 ± 0.31 | -1.64 ± 0.38
88 | GGUGAGCAAUAUUACGGUAC | -1.95 ± 0.13 | -1.4 ± 0.18
89 | GGUGAGCAAUAUUACGGUCA | -1.77 ± 0.32 | -1.79 ± 0.38
90 | GGUGAGCAAUAUUACGUCAU | -3.97 ± 0.19 | -2.76 ± 0.31
91 | GGUGAGCAAUAUUACGUCUA | -1.91 ± 0.16 | -1.42 ± 0.15
92 | GGUGAGCAAUAUUACGUGGC |  | -2.59 ± 0.33
93 | GGUGAGCAAUAUUACGUGUA | -2.8 ± 0.25 | -3.22 ± 0.3
94 | GGUUAGCAAUAUUACGAAGC | -0.991 ± 0.17 | -1.24 ± 0.18
95 | GGUUAGCAAUAUUACGAAUU | 0.0573 ± 0.13 | -0.482 ± 0.16
96 | GGUUAGCAAUAUUACGACAU | 0.0748 ± 0.014 | 0.332 ± 0.034
97 | GGUUAGCAAUAUUACGACCU | -1.72 ± 0.35 | -0.0941 ± 0.33
98 | GGUUAGCAAUAUUACGAGGG | -3.05 ± 0.21 | -2.28 ± 0.34
